In this assay the target is T1, recombinant human MD2 (human, UniProt Q9Y6Y9 19-160).
T1 construct: myeloid differentiation factor 2 (MD2), human, recombinant; No catalogue number is printed; PDB 2E56 was used only for docking; also called rhMD2; myeloid differentiation factor 2; source: bought: R&D Systems
T1 sequence: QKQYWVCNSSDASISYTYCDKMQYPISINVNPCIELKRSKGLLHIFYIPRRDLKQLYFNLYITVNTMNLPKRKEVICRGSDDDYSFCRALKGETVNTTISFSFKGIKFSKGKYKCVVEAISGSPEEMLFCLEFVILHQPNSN
In words: SPR; Biacore T200, CM5 chip, target protein amine-coupled; irisin flowed at seven concentrations, 30 μL/min, 200 s association, 200 s dissociation, 25 °C, PBS with 0.5% P20; global fit with a 1:1 Langmuir model. As to conditions: both partners purified. On the technique in general: Surface plasmon resonance follows binding to a sensor surface in real time, without labels.

B1: recombinant irisin (ligand)
chain: DSPSAPVNVTVRHLKANSAVVSWDVLEDEVVIGFAISQQKKDVRMLRFIQEVNTTTRSCALWDLEEDTEYIVHVQAISIQGQSPASEPVLFKTPREAEKMASKNKDEVTMKE
modifications: Commercial recombinant protein (Phoenix Pharmaceuticals); catalogue number, host and glycosylation not stated. Limits are the conventional 112-aa mature irisin: residues 32-143 of the 212-aa FNDC5 …
Broadly, the Kd is the free concentration of one partner at which half of the binding sites on the other are occupied at equilibrium, for simple one-to-one binding. For the molecule B1, the Kd was determined as 1.65 nM.
